Experimental data reported in publication PMC4516155 (FASEB journal : official publication of the Federation of …, 2013).

T1: GST-FE65 PTB1 (bacterially expressed) (UniProt O00213 361-514)
T1 sequence (looked up): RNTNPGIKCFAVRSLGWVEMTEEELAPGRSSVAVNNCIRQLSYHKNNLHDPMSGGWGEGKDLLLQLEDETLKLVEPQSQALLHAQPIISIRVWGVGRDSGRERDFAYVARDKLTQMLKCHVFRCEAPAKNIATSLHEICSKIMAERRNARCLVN

T2: GST-FE65 PTB1 (mammalian, pCIneo-GST-FE65 PTB1) (human, UniProt O00213 361-514)
T2 sequence (looked up): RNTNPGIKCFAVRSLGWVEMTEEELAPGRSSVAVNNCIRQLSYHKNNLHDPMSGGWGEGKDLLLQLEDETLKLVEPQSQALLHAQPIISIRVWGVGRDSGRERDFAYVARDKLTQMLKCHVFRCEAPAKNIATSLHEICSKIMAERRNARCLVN


What was measured:
[1] = target: T1, GST-FE65 PTB1 (bacterially expressed); test: pull-down
[2] = target: T2, GST-FE65 PTB1 (mammalian, …); test: pull-down

Binder | percent of input pulled down [1] | percent of input pulled down [2]
Myc/His-tagged wild-type ARF6 (natural protein, UniProt P62330 1-175, looked up) MGKVLSKIFGNKEMRILMLGLDAAGKTTILYKLKLGQSVTTIPTVGFNVETVTYKNVKFNVWDVGGQDKIRPLWRHYYTGTQGLIFVVDCADRDRIDEARQELHRIINDREMRDAIILIFANKQDLPDAMKPHEIQEKLGLTRIRDRNWYVQPSCATSGDGLYEGLTWLTSNYKS | 12% | 
Myc/His-tagged ARF6 Q67L (natural protein, UniProt P62330 1-175, looked up) MGKVLSKIFGNKEMRILMLGLDAAGKTTILYKLKLGQSVTTIPTVGFNVETVTYKNVKFNVWDVGGLDKIRPLWRHYYTGTQGLIFVVDCADRDRIDEARQELHRIINDREMRDAIILIFANKQDLPDAMKPHEIQEKLGLTRIRDRNWYVQPSCATSGDGLYEGLTWLTSNYKS | 0.7% | 2%
Myc/His-tagged ARF6 T27N (natural protein, UniProt P62330 1-175, looked up) MGKVLSKIFGNKEMRILMLGLDAAGKNTILYKLKLGQSVTTIPTVGFNVETVTYKNVKFNVWDVGGQDKIRPLWRHYYTGTQGLIFVVDCADRDRIDEARQELHRIINDREMRDAIILIFANKQDLPDAMKPHEIQEKLGLTRIRDRNWYVQPSCATSGDGLYEGLTWLTSNYKS | 27% | 23%
